Laboratory results published in the supplement of paper PMC11246515.
± gives the standard deviation of the averaged measurements.

Assay: total protein half-life in vivo (active degradation + dilution); higher = more stable protein
[1] = E. coli NCM3722 delta-clpP delta-lon delta-hslV, growth: N-lim chemostat, doubling time 6 h
[2] = E. coli NCM3722 delta-clpP, growth: N-lim chemostat, doubling time 6 h
[3] = E. coli NCM3722 delta-hslV, growth: N-lim chemostat, doubling time 6 h
[4] = E. coli NCM3722 delta-lon, growth: N-lim chemostat, doubling time 6 h
[5] = E. coli NCM3722 delta-smpB, growth: N-lim chemostat, doubling time 6 h
[6] = wild type E. coli NCM3722, growth: C-lim chemostat, doubling time 3 h
[7] = wild type E. coli NCM3722, growth: C-lim chemostat, doubling time 6 h
[8] = wild type E. coli NCM3722, growth: C-lim chemostat, doubling time 12 h
[9] = wild type E. coli NCM3722, growth: N-lim chemostat, doubling time 6 h
[10] = wild type E. coli NCM3722, growth: N-lim chemostat, doubling time 12 h
[11] = wild type E. coli NCM3722, growth: P-lim chemostat, doubling time 6 h
[12] = wild type E. coli NCM3722, growth: P-lim chemostat, doubling time 12 h

Sequence	total protein half-life in vivo [1]	total protein half-life in vivo [2]	total protein half-life in vivo [3]	total protein half-life in vivo [4]	total protein half-life in vivo [5]	total protein half-life in vivo [6]	total protein half-life in vivo [7]	total protein half-life in vivo [8]	total protein half-life in vivo [9]	total protein half-life in vivo [10]	total protein half-life in vivo [11]	total protein half-life in vivo [12]
MKTETPSVKIVAITADEAGQRIDNFLRTQLKGVPKSMIYRILRKGEVRVNKKRIKPEYKLEAGDEVRIPPVRVAEREEEAVSPHLQKVAALADVILYEDDHILVLNKPSGTAVHGGSGLSFGVIEGLRALRPEARFLELVHRLDRDTSGVLLVAKKRSALRSLHEQLREKGMQKDYLALVRGQWQSHVKSVQAPLLKNILQSGERIVRVSQEGKPSETRFKVEERYAFATLVRCSPVTGRTHQIRVHTQYAGHPIAFDDRYGDREFDRQLTEAGTGLNRLFLHAAALKFTHPGTGEVMRIEAPMDEGLKRCLQKLRNAR [P0AA39]	5.63 ± 0.067 h	5.2 ± 0.19 h	5.84 ± 1 h	5.68 ± 0.26 h	5.43 ± 0.88 h	3.01 ± 0.092 h	5.78 ± 0.14 h	9.77 ± 0.8 h	5.21 ± 0.31 h	9.13 ± 0.59 h	5.56 ± 0.089 h	11.6 ± 0.92 h
MKTFSDRWRQLDWDDIRLRINGKTAADVERALNASQLTRDDMMALLSPAASGYLEQLAQRAQRLTRQRFGNTVSFYVPLYLSNLCANDCTYCGFSMSNRIKRKTLDEADIARESAAIREMGFEHLLLVTGEHQAKVGMDYFRRHLPALREQFSSLQMEVQPLAETEYAELKQLGLDGVMVYQETYHEATYARHHLKGKKQDFFWRLETPDRLGRAGIDKIGLGALIGLSDNWRVDSYMVAEHLLWLQQHYWQSRYSVSFPRLRPCTGGIEPASIMDERQLVQTICAFRLLAPEIELSLSTRESPWFRDRVIPLAINNVSAFSKTQPGGYADNHPELEQFSPHDDRRPEAVAAALTAQGLQPVWKDWDSYLGRASQRL	4.35 ± 0.4 h	0.761 ± 0.12 h	0.71 ± 0.041 h	1.45 ± 0.13 h	0.7458 ± 0.0057 h	0.948 ± 0.075 h	1.02 ± 0.03 h	0.988 ± 0.12 h	0.86 ± 0.0097 h	1.08 ± 0.084 h	1.09 ± 0.25 h	1.93 ± 0.64 h
MKTGMFTCGHQRLPIEHAFRDASELGYDGIEIWGGRPHAFAPDLKAGGIKQIKALAQTYQMPIIGYTPETNGYPYNMMLGDEHMRRESLDMIKLAMDMAKEMNAGYTLISAAHAGYLTPPNVIWGRLAENLSELCEYAENIGMDLILEPLTPYESNVVCNANDVLHALALVPSPRLFSMVDICAPYVQAEPVMSYFDKLGDKLRHLHIVDSDGASDTHYIPGEGKMPLRELMRDIIERGYEGYCTVELVTMYMNEPRLYARQALERFRALLPEDER	7.09 h	–	–	–	–	> 4 h	–	6.86 h	–	–	–	–
MKTGSEFHVGIVGLGSMGMGAALSYVRAGLSTWGADLNSNACATLKEAGACGVSDNAATFAEKLDALLVLVVNAAQVKQVLFGETGVAQHLKPGTAVMVSSTIASADAQEIATALAGFDLEMLDAPVSGGAVKAANGEMTVMASGSDIAFERLAPVLEAVAGKVYRIGAEPGLGSTVKIIHQLLAGVHIAAGAEAMALAARAGIPLDVMYDVVTNAAGNSWMFENRMRHVVDGDYTPHSAVDIFVKDLGLVADTAKALHFPLPLASTALNMFTSASNAGYGKEDDSAVIKIFSGITLPGAKS	5.94 h	–	–	–	–	0.261 h	0.509 h	1.69 ± 1.5 h	–	–	–	–
MKTIFTVGAVVLATCLLSGCVNEQKVNQLASNVQTLNAKIARLEQDMKALRPQIYAAKSEANRANTRLDAQDYFDCLRCLRMYAE	7.01 h	–	–	–	5.17 h	–	–	6.54 h	–	–	–	> 16 h
MKTIHDIRRSNARKLRDGVGGNSSFATMIDREPTQTSRFMGDGATKNIGDSMARHIEKCFDLPVGWLDQEHQTTNITKKPDVSITNKQITLVPVISWVQAGAWKEVGYSEVDLSTAETYPCPVPCGEMTYILRVIGDSMIDEYRPGDMIFVDPEVPACHGDDVIALMHDTGETTFKRLIEDGTQRYLKALNPNWPEPYIKINGNCSIIGTVIFSGKPRRYKIKA	5.24 ± 0.42 h	5.02 ± 0.3 h	4.84 ± 0.77 h	4.886 ± 0.017 h	5.12 ± 0.24 h	–	6.8 ± 0.23 h	9.86 ± 0.61 h	5.26 ± 0.76 h	7.94 ± 0.96 h	4.81 ± 0.62 h	12.7 ± 2 h
MKTLFSRLITVIACFFIFSAAWFCLWSISLHLVERPDMAVLLFPFGLRLGLMLQCPRGYWPVLLGAEWLLIYWLTQAVGLTHFPLLMIGSLLTLLPVALISRYRHQRDWRTLLLQGAALTAAALLQSLPWLWHGKESWNALLLTLTGGLTLAPICLVFWHYLANNTWLPLGPSLVSQPINWRGRHLVWYLLLFVISLWLQLGLPDELSRFTPFCLALPIIALAWHYGWQGALIATLMNAIALIASQTWRDHPVDLLLSLLVQSLTGLLLGAGIQRLRELNQSLQKELARNQHLAERLLETEESVRRDVARELHDDIGQTITAIRTQAGIVQRLAADNASVKQSGQLIEQLSLGVYDAVRRLLGRLRPRQLDDLTLEQAIRSLMREMELEGRGIVSHLEWRIDESALSENQRVTLFRVCQEGLNNIVKHADASAVTLQGWQQDERLMLVIEDDGSGLPPGSGQQGFGLTGMRERVTALGGTLHISCLHGTRVSVSLPQRYV	5.18 ± 1.4 h	5.44 ± 0.69 h	6.91 h	6.14 ± 0.34 h	5.72 ± 0.14 h	2.75 ± 0.13 h	4.79 ± 0.62 h	10 ± 2.2 h	6.09 ± 0.24 h	–	6.19 h	–
